The supplement of paper PMC7877785
± gives the uncertainty stated by the source.

Assay: self-splicing fitness, log relative to wild type (ln ratio); higher = more splicing; Tetrahymena group I intron in knt gene, E. coli kanamycin selection, DiMSum; sequences stand for … in CUCUCU…GGAGGGAAAAGUUAUCAGGCAUGCACCUGGUAGCUAGUCUUUAAACCAAUAGAUUGCAUCGGUUUAAAAGGCAAGACCGUCAAAUUGCGGGAAAGGGGUCAACAGCCGUUCAGUACCAAGUCUCAGGGGAAACUUUGAGAUGGCCUUGCAAAGGGUAUGGUAAUAAGCUGACGGACAUGGUCCUAACCACGCAGCCAAGUCCUAAGUCAACAGAUCUUCUGUUGAUAUGGAUGCAGUUCACAGACUAAAUGUCGGUCGGGGAAGAUGUAUUCUUCUCAUAAGAUAUAGUCGGACCUCUCCUUAAUGGGAGCUAGCGGAUGAAGUGAUGCAACACUGGAGCCGCUGGGAACUAAUUUGUAUGCGAAAGUAUAUUGAUUAGUUUUGGAGUACUCGUGGUCG
In short: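 Pooled colonies went to amplicon sequencing on an Illumina HiSeq 2500 after six replicate transformations. The plates were LB agar with 100 μg/mL carbenicillin, 50 μM IPTG and 0.2% rhamnose, with or without 25 μg/mL kanamycin, incubated overnight at 37°C or 30°C. The E. coli BL21(DE3) library had all eight P1ex-region intron nucleotides randomised, the intron placed in the knt kanamycin-resistance gene on pET-22b(+). DiMSum fitness is the error-weighted combination of replicate fold changes, kanamycin against none, normalised to wild type.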

Sequence	self-splicing fitness (ln) (30 °C)	self-splicing fitness (ln) (37 °C)
ACGUAGCAAUAUUACGACUG	-1.78 ± 0.13	-0.836 ± 0.15
ACGUAGCAAUAUUACGAUUC	-2.39 ± 0.11	-2.41 ± 0.21
ACGUAGCAAUAUUACGCAGA	-3.08 ± 0.27	-2.48 ± 0.18
ACGUAGCAAUAUUACGCCAC	-4.5 ± 0.39	-2.54 ± 0.44
ACGUAGCAAUAUUACGCCCA	-0.614 ± 0.12	-0.952 ± 0.14
ACGUAGCAAUAUUACGCCCU	-0.282 ± 0.11	-0.245 ± 0.095
ACGUAGCAAUAUUACGCGGG	-2.32 ± 0.12	-0.863 ± 0.11
ACGUAGCAAUAUUACGCUGA	-1.81 ± 0.089	-0.483 ± 0.085
ACGUAGCAAUAUUACGCUGC	-3.09 ± 0.34	-1.44 ± 0.38
ACGUAGCAAUAUUACGGCCA	0.73 ± 0.19	0.143 ± 0.18
ACGUAGCAAUAUUACGGCGC	-1.11 ± 0.083	-0.695 ± 0.098
ACGUAGCAAUAUUACGGCUU	0.0669 ± 0.089	0.194 ± 0.11
ACGUAGCAAUAUUACGGUAC	-3.46 ± 0.18	-2.57 ± 0.3
ACGUAGCAAUAUUACGGUCC	-1.64 ± 0.15	-0.357 ± 0.15
ACGUAGCAAUAUUACGUAAC	-3.5 ± 0.37	-2.46 ± 0.48
ACGUAGCAAUAUUACGUACA	-2.02 ± 0.25	-0.998 ± 0.22
ACGUAGCAAUAUUACGUAGU	-3.78 ± 0.23	-1.26 ± 0.16
ACGUAGCAAUAUUACGUAUC	-3.45 ± 0.24	-2.89 ± 0.26
ACGUAGCAAUAUUACGUGAA	-3.92 ± 0.23	-1.82 ± 0.17
ACGUAGCAAUAUUACGUGAG	-3.75 ± 0.17	-2.55 ± 0.14
ACGUAGCAAUAUUACGUGUA	-2.51 ± 0.14	-2.2 ± 0.14
ACGUAGCAAUAUUACGUGUC	-3.68 ± 0.32	-2.48 ± 0.37
ACGUAGCAAUAUUACGUUGA	-3.4 ± 0.29	-2.78 ± 0.28
ACGUAGCAAUAUUACGUUGG	-4.55 ± 0.31	-2.85 ± 0.25

Sequence	self-splicing fitness (ln) (30 °C)	self-splicing fitness (ln) (37 °C)
ACUAAGCAAUAUUACGAACG	-1.1 ± 0.1	-0.438 ± 0.15
ACUAAGCAAUAUUACGAAUU	-2.52 ± 0.096	-0.972 ± 0.089
ACUAAGCAAUAUUACGACCA	-0.124 ± 0.23	0.571 ± 0.2
ACUAAGCAAUAUUACGACGA	0.0648 ± 0.13	0.181 ± 0.13
ACUAAGCAAUAUUACGAGGU	-3 ± 0.14	-3.37 ± 0.25
ACUAAGCAAUAUUACGAUAA	-1.94 ± 0.17	-0.57 ± 0.17
ACUAAGCAAUAUUACGAUAU	-1.39 ± 0.12	-2.28 ± 0.16
ACUAAGCAAUAUUACGCAUG	-2.31 ± 0.091	-0.766 ± 0.091
ACUAAGCAAUAUUACGCCAG	-0.955 ± 0.14	-0.843 ± 0.2
ACUAAGCAAUAUUACGCCCC	-0.566 ± 0.13	0.127 ± 0.17
ACUAAGCAAUAUUACGGAAG	-2.59 ± 0.13	-1.55 ± 0.15
ACUAAGCAAUAUUACGGACA	-0.625 ± 0.094	-0.362 ± 0.12
ACUAAGCAAUAUUACGGGAC	-2.94 ± 0.14	-0.635 ± 0.12
ACUAAGCAAUAUUACGGGGC	-4.09 ± 0.42	-2.79 ± 0.24
ACUAAGCAAUAUUACGGGUC	-3.49 ± 0.34	-0.75 ± 0.23
ACUAAGCAAUAUUACGUAGG	-1.4 ± 0.074	-0.98 ± 0.1
ACUAAGCAAUAUUACGUCGG	-1.99 ± 0.068	-1.04 ± 0.087
ACUAAGCAAUAUUACGUGUA	-2.6 ± 0.13	-1.38 ± 0.12
ACUAAGCAAUAUUACGUUAU	-3.49 ± 0.13	-1.55 ± 0.11
ACUAAGCAAUAUUACGUUGA	-2.67 ± 0.12	-1.92 ± 0.13
ACUCAGCAAUAUUACGAGAA	-1.51 ± 0.21	-0.586 ± 0.2
ACUCAGCAAUAUUACGAGGU	-3.47 ± 0.18	-1.68 ± 0.17
ACUCAGCAAUAUUACGCAAA	-2.02 ± 0.12	-0.838 ± 0.11
ACUCAGCAAUAUUACGCAAC	-2.14 ± 0.17	-2.43 ± 0.26

Sequence	self-splicing fitness (ln) (30 °C)	self-splicing fitness (ln) (37 °C)
ACUCAGCAAUAUUACGCACG	-1 ± 0.078	-0.784 ± 0.13
ACUCAGCAAUAUUACGGAUG	-1.36 ± 0.068	-0.69 ± 0.098
ACUCAGCAAUAUUACGGCCG	-1.87 ± 0.13	-0.609 ± 0.15
ACUCAGCAAUAUUACGGCGU	-0.555 ± 0.059	0.0604 ± 0.074
ACUCAGCAAUAUUACGGUAC	-2.63 ± 0.13	-3.01 ± 0.21
ACUCAGCAAUAUUACGGUCG	-3.23 ± 0.12	-1.33 ± 0.1
ACUCAGCAAUAUUACGUACG	-2.58 ± 0.14	-0.864 ± 0.11
ACUCAGCAAUAUUACGUCUA	-0.845 ± 0.081	-0.152 ± 0.076
ACUCAGCAAUAUUACGUCUG	-3.57 ± 0.14	-2.74 ± 0.16
ACUGAGCAAUAUUACGAAGA	-2.33 ± 0.22	-1.64 ± 0.2
ACUGAGCAAUAUUACGAAUA	-2.97 ± 0.28	-2.65 ± 0.29
ACUGAGCAAUAUUACGAGCU	–	-1.02 ± 0.32
ACUGAGCAAUAUUACGCAAG	-2.68 ± 0.28	-1.54 ± 0.19
ACUGAGCAAUAUUACGCACC	-2 ± 0.4	-2.15 ± 0.42
ACUGAGCAAUAUUACGCCUG	-2.36 ± 0.19	-1.48 ± 0.19
ACUGAGCAAUAUUACGCCUU	-1.55 ± 0.2	-0.418 ± 0.24
ACUGAGCAAUAUUACGCGUG	-2.2 ± 0.092	-1.05 ± 0.1
ACUGAGCAAUAUUACGCUAA	-3.41 ± 0.43	-3.71 ± 0.39
ACUGAGCAAUAUUACGCUCG	-2.59 ± 0.24	-1.59 ± 0.23
ACUGAGCAAUAUUACGGACU	-1.08 ± 0.077	-0.672 ± 0.093
ACUGAGCAAUAUUACGGAGU	-2.8 ± 0.41	-1.78 ± 0.33
ACUGAGCAAUAUUACGGCCC	-1.95 ± 0.3	-0.993 ± 0.26
ACUGAGCAAUAUUACGGGCG	-2.3 ± 0.15	-1.01 ± 0.18
ACUGAGCAAUAUUACGGUCG	-3.49 ± 0.16	-1.46 ± 0.16

Sequence	self-splicing fitness (ln) (30 °C)	self-splicing fitness (ln) (37 °C)
ACUGAGCAAUAUUACGGUGA	-2.02 ± 0.13	-3.65 ± 0.24
ACUGAGCAAUAUUACGUACA	-1.96 ± 0.24	-0.524 ± 0.17
ACUGAGCAAUAUUACGUCCU	-2.07 ± 0.11	-0.865 ± 0.12
ACUGAGCAAUAUUACGUCGC	-3.35 ± 0.26	-2.18 ± 0.21
ACUGAGCAAUAUUACGUGAC	-3.23 ± 0.2	-2.95 ± 0.27
ACUGAGCAAUAUUACGUUAG	-3.64 ± 0.2	-0.75 ± 0.19
ACUGAGCAAUAUUACGUUGC	–	-2.04 ± 0.28
ACUUAGCAAUAUUACGAACC	-0.695 ± 0.21	-0.285 ± 0.36
ACUUAGCAAUAUUACGAACG	-1.16 ± 0.089	-0.581 ± 0.1
ACUUAGCAAUAUUACGAACU	-0.706 ± 0.12	-0.193 ± 0.14
ACUUAGCAAUAUUACGAAUU	-2.29 ± 0.1	-0.888 ± 0.14
ACUUAGCAAUAUUACGAGCG	-1.14 ± 0.096	0.122 ± 0.1
ACUUAGCAAUAUUACGAUAC	-3.82 ± 0.42	-2.28 ± 0.26
ACUUAGCAAUAUUACGAUGC	-1.04 ± 0.091	-0.644 ± 0.11
ACUUAGCAAUAUUACGAUGU	-1.78 ± 0.08	-1.36 ± 0.11
ACUUAGCAAUAUUACGAUUC	-2.3 ± 0.098	-0.823 ± 0.1
ACUUAGCAAUAUUACGCAAC	-2.89 ± 0.19	-1.72 ± 0.17
ACUUAGCAAUAUUACGCGGG	-3.38 ± 0.27	-2.75 ± 0.2
ACUUAGCAAUAUUACGCUCC	-1.44 ± 0.22	0.041 ± 0.19
ACUUAGCAAUAUUACGCUUG	-1.7 ± 0.094	-0.865 ± 0.12
ACUUAGCAAUAUUACGGAUU	-1.18 ± 0.12	-0.862 ± 0.14
ACUUAGCAAUAUUACGGCAG	-1.6 ± 0.092	-0.759 ± 0.12
ACUUAGCAAUAUUACGGCGG	-1.06 ± 0.087	-0.78 ± 0.096
